Here are results for 17 variants from article PMC4510971 (2015).

As a reminder, the IC50 is the concentration needed to halve the response being measured.

To fix the notation:
B1: UBN1(92–175) [human] / H3.3/H4 [human | X. laevis] (parent complex)
chain 1: NDEEKERHKVEALARKFEEKYGGKKRRKDRIQDLIDMGYGYDESDSFIDNSEAYDELVPASLTTKYGGFYINSGTLQFRQASES
chain 2: not shown
chain 3: not shown

The test covers variants of B1. As to the kind of experiment: fluorescence polarization competition binding; 10 nM FITC-UBN1(127–148), 6.5 μM H3.3/H4; 20 mM HEPES pH 7.5, 750 mM NaCl, 1 mM TCEP; parent: 1.66e+04 nM.
Turning to chain 1 I35A, the 50% inhibitory concentration (IC50) is 13.8 µM.

chain 1 Y39A: the IC50 came to 14.4 µM.

On to chain 1 L34A, for which the 50% inhibitory concentration (IC50) was 15.1 µM.

Turning to chain 1 M37A, the half-maximal inhibitory concentration (IC50) stood at 22.6 µM.

Turning to chain 1 L57A, the IC50 worked out at 19.6 µM.

In the case of chain 1 G40A, the IC50 came to 19.9 µM.

Consider chain 1 Y54A, for which the half-inhibitory concentration (IC50) turned out to be 16.4 µM.

In the case of chain 1 A53I, the IC50 is 16.3 µM.

For chain 1 G38A, the IC50 amounted to 67.8 µM.

With chain 1 I31A, the half-maximal inhibitory concentration (IC50) came out at 16.9 µM.

Regarding chain 1 D33A, the IC50 is 19.6 µM.

Regarding chain 1 Q32A, the concentration for half-maximal inhibition (IC50) came to 13.8 µM.

Take chain 1 D36A: the IC50 came to 21.1 µM.

Turning to chain 1 E56A, the 50% inhibitory concentration (IC50) was 22.9 µM.

Take chain 1 E52A: the IC50 came out at 29.3 µM.

Regarding chain 1 S46A, the half-maximal inhibitory concentration (IC50) turned out to be 16.2 µM.

With chain 1 D55A, the half-inhibitory concentration (IC50) is 23 µM.
